Reference: patent US20040002450A1 (published 2004)
Non-standard residues stand in square brackets, D forms with d. No end group written: not given here. sY = N[C@@H](Cc1ccc(OS(=O)(=O)O)cc1)C(=O)O

T1: PSGL-1 on KG-1 cells (human, UniProt Q14242 42-412, sulfated tyrosines in the N-terminal site)
T1 construct: whole, on cells; results told for KG-1 cells are written against this molecule; also called P-Selectin Glycoprotein Ligand-1; CD162
T1 sequence (looked up): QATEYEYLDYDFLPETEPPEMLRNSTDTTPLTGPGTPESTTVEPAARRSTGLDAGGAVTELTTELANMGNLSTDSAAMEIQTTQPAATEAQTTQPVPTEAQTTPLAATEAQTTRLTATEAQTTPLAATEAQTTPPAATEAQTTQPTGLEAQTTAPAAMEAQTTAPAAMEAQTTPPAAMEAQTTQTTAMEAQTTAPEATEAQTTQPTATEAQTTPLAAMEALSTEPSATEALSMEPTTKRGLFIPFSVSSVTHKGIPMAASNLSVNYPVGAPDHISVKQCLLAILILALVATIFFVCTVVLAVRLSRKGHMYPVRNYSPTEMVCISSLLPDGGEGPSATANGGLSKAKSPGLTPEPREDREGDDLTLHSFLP

B1: Y1-cys-kak (cysteine dimer) (other)
scFv: MEVQLVESGGGVVRPGGSLRLSCAASGFTFDDYGMSWVRQAPGKGLEWVSGINWNGGSTGYADSVKGRFTISRDNAKNSLYLQMNSLRAEDTAVYYCARMRAPVIWGQGTLVTVSRGGGGSGGGGSGGGGSSELTQDPAVSVALGQTVRITCQGDSLRSYYASWYQQKPGQAPVLVIYGKNNRPSGIPDRFSGSSSGNTASLTITGAQAEDEADYYCNSRDSSGNHVVFGGGTKLTVLGGGGCKAK
modifications: Homodimer held by an interchain disulfide between Cys243 of chain 1 and Cys243 of chain 2.
notes: also called Y1-cys-kak scFv; dimer Y1-cys-kak

What was measured:
PSGL-1 on KG-1 cells [1] = target: T1, PSGL-1 on KG-1 cells; assay: FACS on KG-1 cells, directly FITC-labelled
PSGL-1 on KG-1 cells [2] = target: T1, PSGL-1 on KG-1 cells; assay: radioreceptor competition assay on KG-1 cells, 125I-Y1-IgG tracer
Procedure: (§1) The assay system involved the use of radioactive ligands that were prepared by iodination with ¹²⁵I using chloramine T on the Y1-IgG construct or the Bolton-Hunter (CONY1) reagent. The assay tubes contained 5×10⁶ KG-1 cells per 0.2 ml and a labeled tracer with varying amounts of unlabeled competitor, in PBS+0.1% BSA, pH 7.4. After one hour incubation with agitation at 4° C., the cells were thoroughly washed with cold buffer and taken for radioactivity counting.
For the radio receptor binding assay (RRA), 2 ng/tube of ¹²⁵I-Y1-IgG was used, and competition was performed with each of the three molecules.

PSGL-1 on KG-1 cells [3] = target: T1, PSGL-1 on KG-1 cells; assay: radio receptor assay on KG-1 cells, dimer as competitor
PSGL-1 on KG-1 cells [4] = target: T1, PSGL-1 on KG-1 cells; assay: second radioreceptor competition assay on KG-1 cells
Procedure: as §1
In a second RRA using labeled CONYL, a 100 ng/tube of ¹²⁵I-Y1-IgG was used, and competition was performed with each of the three molecules.

Y1 scFv [5] = target: T2, Y1 scFv; assay: competition ELISA on coated glycocalicin, 0.25 µg/well Y1, peptide 0.5 µM
T2 construct: Fully human scFv from the Nissim I phage library; Used biotin-labelled in the Western blots; also called scFv Y1; scFv-Y1
Procedure: (§2) ELISA assays were developed to evaluate the effect of the GPIb derived synthetic peptides on the binding of Y1 to purified glycocalicin. In addition, FACS analysis using washed platelets was carried out. To evaluate the importance of sulfated tyrosine within the Y1 binding site of GPIb, a competitive binding FACS analysis was used. Y1-scFv at a concentration of 1 μg was preincubated with different peptides at concentrations of 2.5 and 200 μM. After a preincubation for 30 minutes at room temperature the mixture was added to a tube containing ˜10⁷ washed platelets and the binding of Y1 to the washed platelets was assessed using polyclonal rabbit anti-scFv-PE. The inhibitory effect of the peptides compared to control binding (Y1 alone) was evaluated by measuring the residual binding of Y1 to washed platelets. The peptides and the results are described in Table 1 and are similar to results that were observed using the same peptides in an ELISA assay (Table B). In both assays, a control level of Y1 binding was determined, as follows. A polystyrene microtiter maxisorb plate was coated with (a) purified glycocalicin or (b) washed platelets. After extensive washing, 0.5 μg/well of Y1 was added. The plate was then incubated with rabbit anti-scFv followed by addition of anti rabbit —HRP (horse radish peroxidase) and HRP substrate. The level of anti rabbit —HRP binding was measured by the intensity of the color produced, and the level of anti rabbit —HRP binding correlates with the level of binding of anti Y1-scFv and the level of binding of Y1. The optical density was measured at A405. Each sample was assayed in duplicate, and the average was calculated.
(§3) The effect of synthetic GPIbα peptides on Y1 binding to purified glycocalicin was evaluated by mixing varying concentrations of the peptides with a constant amount of Y1. […] The inhibitory effect of the peptides was evaluated by measuring the residual binding of Y1 to glycocalicin using rabbit anti Y1scFv and anti rabbit —HRP antibodies, as described for evaluation of Y1 binding in the absence of peptides.

Y1 scFv [6] = target: T2, Y1 scFv; assay: competition ELISA on coated glycocalicin, 0.25 µg/well Y1, peptide 25 µM
Procedure: as §2, §3

Y1 scFv [7] = target: T2, Y1 scFv; assay: competitive FACS, 1 µg Y1-scFv on ~10^7 washed platelets, peptide 200 µM
Procedure: as §2

Y1 scFv [8] = target: T2, Y1 scFv; assay: competitive FACS, 1 µg Y1-scFv on ~10^7 washed platelets, peptide 2.5 µM
Procedure: as §2

Y1 scFv [9] = target: T2, Y1 scFv; assay: competition ELISA on coated glycocalicin, 0.25 µg/well Y1, peptide 2.5 µM
Procedure: as §2, §3

T2 sequence (scFv, as listed by the source): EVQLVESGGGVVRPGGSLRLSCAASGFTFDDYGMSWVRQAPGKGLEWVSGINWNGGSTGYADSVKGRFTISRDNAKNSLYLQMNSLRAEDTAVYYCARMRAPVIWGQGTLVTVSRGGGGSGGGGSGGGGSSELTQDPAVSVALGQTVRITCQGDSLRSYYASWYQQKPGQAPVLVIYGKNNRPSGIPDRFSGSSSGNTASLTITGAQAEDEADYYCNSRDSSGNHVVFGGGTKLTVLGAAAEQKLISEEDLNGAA

| Binder | fold less material than the monomer (PSGL-1 on KG-1 cells [1]) | Kd (PSGL-1 on KG-1 cells [2]) | fold higher affinity than CONY1 (PSGL-1 on KG-1 cells [2]) | fold lower affinity than the full Y1 antibody (PSGL-1 on KG-1 cells [2]) | fold efficiency against the monomer (PSGL-1 on KG-1 cells [3]) | Kd (PSGL-1 on KG-1 cells [4]) | fold higher affinity than CONY1 (PSGL-1 on KG-1 cells [4]) | Residual Binding of Y1 (% of baseline) (Y1 scFv [5]) | Residual Binding of Y1 (% of baseline) (Y1 scFv [6]) | Residual Binding of Y1 (% of baseline) (Geo Mean) (Y1 scFv [7]) | Residual Binding of Y1 (% of baseline) (Geo Mean) (Y1 scFv [8]) | Residual Binding of Y1 (% of baseline) (Y1 scFv [9]) |
| --- | --- | --- | --- | --- | --- | --- | --- | --- | --- | --- | --- | --- |
| B1 | 10 fold | ~40 nM | 30 fold | 2 fold | 30 fold | ~50 nM | 20 fold | – | – | – | – | – |
| TDL[sY]D[sY][sY]PEEDTE [P-2-S] | – | – | – | – | – | – | – | 78 % of baseline | 15 % of baseline | 7 % of baseline | 61 % of baseline | 52 % of baseline |
| GDEGDTDL[sY]D[sY][sY]P [P-3-S] | – | – | – | – | – | – | – | 80 % of baseline | 21 % of baseline | 26 % of baseline | 82 % of baseline | 67 % of baseline |
| REEGRQHFFLLEGRSSYS (also called negative control peptide) [EGR] | – | – | – | – | – | – | – | 121 % of baseline | 89 % of baseline | 119 % of baseline | 96 % of baseline | 100 % of baseline |
